Source: patent US20220227872A1 (LUDWIG INSTITUTE FOR CANCER RESEARCH, published 2022)

B1: anti-TEM1 scFv-Fc fusion 2B11 (Fc fusion)
VH: EVQLVETGGGLVKPGGSLRLSCAASGFTFNTYTMNWVRQAPGKGLEWVSSISSSSTYIYYADSVKGRFTISRDNAKNSLYLQMNSLRAEDTAVYYCAKSIVGATHDAFDIWGQGTMVTVSS
VL: DIQMTQSPPTLSASVGDRVTITCRASQSISRWLAWYQQKPGKAPNLLIYDASNLQSGVPSRFSGSGSGTEFTLTISSLQPDDFGTYYCQQYKNYSPTFGQGTKLEIK
notes: also called 2B11 scFv-Fc
B2: human tumor endothelial marker 1 (TEM1) on cells (receptor)
chain: QDPWAAEPRAACGPSSCYALFPRRRTFLEAWRACRELGGDLATPRTPEEAQRVDSLVGAGPASRLLWIGLQRQARQCQLQRPLRGFTWTTGDQDTAFTNWAQPASGGPCPAQRCVALEASGEHRWLEGSCTLAVDGYLCQFGFEGACPALQDEAGQAGPAVYTTPFHLVSTEFEWLPFGSVAAVQCQAGRGASLLCVKQPEGGVGWSRAGPLCLGTGCSPDNGGCEHECVEEVDGHVSCRCTEGFRLAADGRSCEDPCAQAPCEQQCEPGGPQGYSCHCRLGFRPAEDDPHRCVDTDECQIAGVCQQMCVNYVGGFECYCSEGHELEADGISCSPAGAMGAQASQDLGDELLDDGEDEEDEDEAWKAFNGGWTEMPGILWMEPTQPPDFALAYRPSFPEDREPQIPYPEPTWPPPLSAPRVPYHSSVLSVTRPVVVSATHPTLPSAHQPPVIPATHPALSRDHQIPVIAANYPDLPSAYQPGILSVSHSAQPPAHQPPMISTKYPELFPAHQSPMFPDTRVAGTQTTTHLPGIPPNHAPLVTTLGAQLPPQAPDALVLRTQATQLPIIPTAQPSLTTTSRSPVSPAHQISVPAATQPAALPTLLPSQSPTNQTSPISPTHPHSKAPQIPREDGPSPKLALWLPSPAPTAAPTALGEAGLAEHSQRDDRWLLVALLVPTCVFLVVLLALGIVYCTRCGPHAPNKRITDCYRWVIHAGSKSPTEPMPPRGSLTGVQTCRTSV
notes: Endogenous on A673 and SK-N-AS cells, or full length hTEM1 ORF (NM_020404.3) in pTagGFP2-N transiently expressed in HEK293T cells; also called hTEM1; human TEM1
B3: murine tumor endothelial marker 1 (TEM1) on cells (receptor)
chain: QVPWTPEPRAACGPSSCYALFPRRRTFLEAWRACRELGGNLATPRTPEEAQRVDSLVGVGPANGLLWIGLQRQARQCQPQRPLRGFIWTTGDQDTAFTNWAQPATEGPCPAQRCAALEASGEHRWLEGSCTLAVDGYLCQFGFEGACPALPLEVGQAGPAVYTTPFNLVSSEFEWLPFGSVAAVQCQAGRGASLLCVKQPSGGVGWSQTGPLCPGTGCGPDNGGCEHECVEEVDGAVSCRCSEGFRLAADGHSCEDPCAQAPCEQQCEPGGPQGYSCHCRLGFRPAEDDPHRCVDTDECQIAGVCQQMCVNYVGGFECYCSEGHELEADGISCSPAGAMGAQASQDLRDELLDDGEEGEDEEEPWEDFDGTWTEEQGILWLAPTHPPDFGLPYRPNFPQDGEPQRLHLEPTWPPPLSAPRGPYHSSVVSATRPMVISATRPTLPSAHKTSVISATRPPLSPVHPPAMAPATPPAVFSEHQIPKIKANYPDLPFGHKPGITSATHPARSPPYQPPIISTNYPQVFPPHQAPMSPDTHTITYLPPVPPHLDPGDTTSKAHQHPLLPDAPGIRTQAPQLSVSALQPPLPTNSRSSVHETPVPAANQPPAFPSSPLPPQRPTNQTSSISPTHSYSRAPLVPREGVPSPKSVPQLPSVPSTAAPTALAESGLAGQSQRDDRWLLVALLVPTCVFLVVLLALGIVYCTRCGSHAPNKRITDCYRWVTHAGNKSSTEPMPPRGSLTGVQTCRTSV
notes: also called mTEM1; murine TEM1

Assays:
[1] = biological target: B2; assay: FACS on cell lines
Description: (§1) A673, human Ewing's sarcoma; SK-N-AS, human neuroblastoma; 2H11, murine tumor vascular endothelium; TC1, murine lung adenocarcinoma; HEK293-6E, human embryonic kidney; HT-1080, human fibrosarcoma; MDA-MB-231, human mammary carcinoma; MS1, murine pancreatic islet endothelium.
(§2) Adherent cells were detached using 10 mM EDTA, counted and resuspended in fresh, complete culture medium. All subsequent steps were performed on ice. […] After washing three times with FACS buffer, the secondary antibody, Alexa Fluor 647 AffiniPure Goat Anti-Human IgG (Jackson Immunoresearch, #109-605-098, 1:200 dilution) was added. Following incubation for 30 min the cells were washed again three times. Immediately before data acquisition, dead cells were stained with 4′,6-Diamidino-2-phenylindole (DAPI, 1:2000 dilution). Data was acquired using an LSR-II flow cytometer equipped with […] software (BD Biosciences). Data analysis and plotting were carried out using FlowJo v10 (FlowJo LLC).

[2] = biological target: B3; assay: FACS, scFv-Fc 2 µg/ml on human and murine cell lines
Description: as §1, §2

[3] = biological target: T1, anti-TEM1 scFv-Fc fusion 3B6; assay: FACS on cell lines
T1 construct: also called 3B6 scFv-Fc
Description: as §1, §2

[4] = biological target: T1, anti-TEM1 scFv-Fc fusion 3B6; assay: FACS, scFv-Fc 2 µg/ml on human and murine cell lines
Description: as §1, §2

T1 sequence (VH, as listed by the source, chain 1 of 2): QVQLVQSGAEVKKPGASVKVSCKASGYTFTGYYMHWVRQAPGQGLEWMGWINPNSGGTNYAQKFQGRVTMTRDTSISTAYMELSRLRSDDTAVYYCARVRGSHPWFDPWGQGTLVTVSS
T1 sequence (VL, as listed by the source, chain 2 of 2): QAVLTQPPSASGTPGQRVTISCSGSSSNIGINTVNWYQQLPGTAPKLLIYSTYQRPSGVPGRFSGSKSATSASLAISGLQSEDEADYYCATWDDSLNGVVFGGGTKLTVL

Binder: B1
- binding result [1]: binds
- binding result [2]: binds

Binder: B2
- binding result [3]: binds

Binder: B3
- binding result [4]: binds
